Data published in a protein production outcome set (Wang et al. 2014).

Assay: label from the status in PepcDB records

Sequence	protein production
MSDQKNRRNALIGAAFLMATSAIGPGFLTQTATFTQALAASFGFVILLSILLDIGAQLNIWRIVAVSEKQAQDIANQVLPGAGYFLAVLIVMGGLAFNIGNVGGAGLGLNLLTGLSPETGAVISGVIAIGVFLFKEAGKVMDKFAQVMGFVMIALTVYVAWQANPPLADAAVHTFMPEKLDAMAIVTLVGGTVGGYITFAGAHRLLDAGIKGKSALPEVSQSSVRAILIASIMRIVLFLAVLGVVSQGVQLNPDNPASTPFEYAAGYIGLLIFGVVIWAASITSVIGAAYTSVSFFSGLSPSIERNKNKWIIAFIAVSTAVFSTIGKPAQVLVFVGALNGLILPISLGLILIAAYKTKIVGDYKHPLWLTVSGVIVVGLMAVLSAITISKYIGGLFG	failed
MSDQPMNEVQDNAAPANPWLELRRLTPARIALGRTGTSLPTCAQLDFQAAHAQARDAVHLAFDHAAISAQLAEKGRETILLHSAAADRDSYLQRPDLGRRLNDESAQTLRDYAAAHPGGLDLAVVVADGLSALAVHRHAVPFLTRLEEQASAEGWTLSPVLMVEQGRVAVADEIGELLGAKMVVILIGERPGLSSPDSLGLYFTYAPKVGLNDAHRNCISNVRLEGLSYAMAAHRLLYLMREACKRQISGVSLKDEAQLNTLESDDSAENSDRKIGNFLLDGPAVPH	not failed
MSDRKTMWDERYDTTDFVYGREPNAFLAEVVQQIPPGDVLCLAEGEGRNAVFLAKQGHRVLAVDSSAVGLVKAARLAEESGVRIETETADLAEFAIEPVCWDAIVSIFCHVPPQVRRALHRKVVEGLRPGGLFILEAYTPAQLKLRTGGPPTEEVMMTLAGLREELAGLEFLQAREIEREVVEGRFHTGRGAVVQVVARKP	failed
MSDRSSLFDVRSSTSVTLDQVVRRDTVEIPDEAALAMPVQPLSFWQGGARRATALTQDMNLRRWMLGLMTIAMGVAGWKASFDTIALGGVTRLEAVVLTLLAPLFLALSLWFCTALIGFVVLMGRPKDPLGIDSEAPMPKLHTRTAILMPVYNEDAAAVFARLRAMDASIAETGSARNFDIFVISDTRDAQVALAEQACFARFRREANCNVYYRIRKENTGRKAGNVADWVSRWGSAYEHMLVLDADSLMTGEAMVRLADAMERHPGAGLIQTMPMIINGQTIFARTLQFATRLYGRVAWTGLAWWSGSESSFWGHNAIVRTRAFAETCGLPHLPGPKPFGGEVMSHDALESALLRRGGWSVHLAPYLDGSYEESPSNLLDFATRDRRWCRGNIQHVPLIALPGLHWMSRMHLVIGVLSYALSPLWFFCLSAGLISRALMPELKKAAFTMADLKAAAHALIDWSEIQATAWAMIITFVLLFGPKILGAILVLARKGEVKGFGGKRRMAAGLGVEMLLSALVAPMLMFTQTRAIVEILAGKVGGWAAQRRDADKVDFKEAWAAMGWISLSGLILAASFWFTPDLLTATAPILAGLVLAVPLTMLGAHKVAGLKLKANGLFMTPEERRPPAIVRAAVGAACEPPIRWFARNGRPIGPTTKIRDAA	failed
MSDSLPQRNGGQILVEALRRNAVDTVYCIPGESYLPVLDALYDTDGIRTVVTRHEGAASNMADAYGKLTGRPGICFVTRGPGATHAANGVHTAQQDSTPMILFVGQVESAFKGREAFQEVDYVQMFSGLAKWAVEIDRIERIPEIVGRAFSVATSGRPGPVVVALPEEILFGSAQVADAPEPRVLPGRPGATAMAELRELLANARRPLLVLGGSGWDSAARKRLGAFVEANGLPVATSFRRQDLFDNRDPHYAGQLGFGAAPALLERLRQADLLLVVGARLGETPSAGYSLVRSPAPAQTLIHVHPDSAELNRVYLARLPIQATPCAFAEALADLAPLPSSTWQDWREAAHADYLAYSTPAASDPAVQGVDLASVVAYLSENLPDDAVIANGAGNYAVWVHRFYRYRQARTQLAPTNGAMGYGLPAAIAASLRDPQRSVVCFAGDGCFMMYPQELATAAQFGATPVVIVVNNGMLGTIRMHQEREYPGRVSATRLDNPDFVALARAFGAHAERVECSADFPAAFRRARESGRPALLELLTDPRQITPQA	failed
MSDTPQAILLMGPTASGKTGLALELARRFPVEIVSVDSALVYRDMDIGTAKPTAEEMAACPHHLIDVISPLQSYSAAQFHADANRLIADIQARGKLPLLVGGTMLYYKALLEGLSDLPQADAALRAELDADAALLGWPAMHARLAELDPATASRLNPNDSQRIHRALEVCLLSGKPMSELIAQGKEAAAGFRFLPLALVPRERGWLHARIAERFRIMLEQGFLDEVSRLRAKYPELTLNLPSMRCVGYRQAWEHQDGLYGHDEFVERGVAATRQLAKRQLTWTRSLDAIPVDAQRDGLAGLLGDAVDDFLAGRPPAESLRYAGDFLEHHHHHH	not failed
